These results are taken from patent US20220381770A1.

Assay [1] deals with Survivin96-104/HLA-A2-Fc-STag. Put plainly: flow cytometry of pMHC-Fc-loaded α-Fc-based T-Plex beads stained with BB7.2. Background: Flow cytometry measures light scatter and fluorescence of single cells or particles in a stream.
The target of assay [2] is HCMV pp65495-503/HLA-A2-Fc (Human cytomegalovirus). The description is as above.

As to “αHLA-A2 mAb (Clone BB7.2/BioLegend) of IgG2b isotype (antibody)”, the fold MFI against pMHC-pCC-Fc-loaded SAv-based T-Plex beads in assay [1] and in assay [2] was 4 fold throughout.
